Data on 21 sequences can be found in the DeepSol protein solubility set.

The series is described as follows: soluble on expression in E. coli; label from the status in PepcDB or PDB records.
In the case of “MNIYTDKKVVAVGGGHGLGRMLAALKDFGSNATGIVATTDNGGSTGRIRHCQGGIAWGDTRNCINQLITEPSISSMMFEYRFKGTGELDGHNLGNLMLTALDNLSVRPLDAINLIRNMLKVDVNILPMSEHPSDLSALSVNGQWVTGETNVDEMETDLRRLDLSPEVPATKEAVTALAEADAIILGPGSFLTSIMPPLLLPELGKAIAANRKAKVIFVANLSPEYGPAGRMSMAQKLEWCERACQGRRIDVVLAEETDQKVLEQWNVVTEPLASTNRDWRHDRDKLKAAIENQLLTKLEHHHHHH”, the “soluble on expression in E. coli” value is given as “soluble”. For “PQDAVIWLGAEKTGLKLTNSSNTFEGVIDGVDITVTKAQTSGETAIGLGIGADDEATKEQLNKFVDAYNTLISTIDEHTQIGSEDKKRGVLASDPTMRSIESQLSSLVRGEHGGMRLSEIGVTLDRHGKLKVDQEKFAEAQKNNSAGLEAMFNGDGALLDSMDAMAEPFLKFSSGAFKSRKEALQANLDRLSDKQTTLERKYDMSYKRYLKQFTQMNTLMTQMNQ”, the “soluble on expression in E. coli” value was “not soluble”.

As to “MGANTKYKDSVFSLLFSDPDLLRELYCALEGVSLPADIPVTINTLRDALFMGMINDISFEIGGKLIILIEHQSTINPNMALRLLMYIARVYEKLIGDRNIYSSRLIHIPRPEFYVLYNGVTPYPDRTTLKLSDMFEKAGAFGLPEKGSAALELEVNVININEGKNEVIAKKCKTLAGYSAFVAKVRAFEKEIGDKTEAMKQAVRYCRDHDILKEFLEQNGTEVMNMLINEWNIEDAKKVWYEDGLSQGLEKGLEKGREEGREEESFSIAQNLVKLGLPIETIISATQLDPDKVKALYQQ”, the “soluble on expression in E. coli” value is listed as “soluble”. The result for “MAPTVERKNINLAPLKAAGVPIFFIVGGPGSGKGTQCDKIVAKYGLTHLSSGDLLRDEVKSGSPRGAQLTAIMESGALVPLEVVLDLVKEAMLKAIEKGSKGFLIDGYPREVAQGQQFESEIQEAKLVLFFDVAEETLVKRLLHRAQTSGRADDNADTIKKRLHTFVTSTAPVVDYYESKGKLVRINAEGSVDDIFAVVVANLDKATSKL” reads “soluble”. Consider “MTTKEITLDENGFATEAGFITVYNYSGETREYISTSTEYLAVGVGIPACSCLDAPVTHKAGYAICRSADFNSWEYVPDHRGEIVFSTETGESKEITAPGDYPDNTTTIAPLTPYDKWDGEKWVTDTEAQHSAAVDAAEAQRQSLIDTAMASISLIQLKLQAGRKLTQAETTRLNAVLDYIDAVTATDTSTAPDVIWPELPEA”, for which the “soluble on expression in E. coli” value is “not soluble”. The same measure for “MGHHHHHHSHMAKAITGVVCYACRIASTLLLYQELMRKGIRWLIELIKDDYNETVHKKTEVVITLDFCIRNIEKTVKVYEKLMKINLEAAELGEISDIHTKLLRLSSSQGTIETSLQDIDSRLSPGGSLADAWAHQEGTHPKDRNVEKLQVLLNCMTEIYYQFKKDKAERRLAYNEEQIHKFDKQKLYYHATKAMTHFTDECVKKYEAFLNKSEEWIRKMLHLRKQLLSLTNQCFDIEEEVSKYQEYTNELQETLPQKMFTASSGIKHTMTPIYPSSNTLVEMTLGMKKLKEEMEGVVKELAENNHILERFGSLTMDGGLRNVDCL”: “not soluble”; for “MPQITLSAEVQPEQMGQRLDQTLAELFPEYSRSRLKTWIEADLVKLNDRITNIPREKVLGGERIEIIVEVEDETRFEAENIPLNIVYEDDDIIVINKPKDLVVHPGAGNPNGTVLNALLYHYPPIVEVPRAGIVHRLDKDTTGLMVVAKTIPAQTKLVRDLQKRKITREYEAVASGIMTKGGTVDQPMARHATKRTLMAVHPMGKPAVTHYRIMENYRNYTRLRLRLETGRTHQIRVHMAHIAHPLLGDQTYGGRPRPPKNASEDFMEVLRNFKRQALHAVMLRLAHPITGEMMEWYAPLPDDFVELLNALKADYLEHQDELDY”: “soluble”; for “MAHHHHHHMLTIRVGNLPVCLCSNLRNTFNPTYAFGVKRNDGTVALLDGKSGHLLLPFDAEGNIIVTPGADYQLVFLSNDSTSSTVHTTQGLGKGGTNKTSHDFELTKALAKDGSIHREKRRLDDGRATSRERFHKGNAHYSVSDSKPTKRRKRDHSVDKDAVVEAEFGSQSINKKERSVKASRKDSNREDSDDPDDIPIFCTLAGKPTPAPISSNHTPTVSPAPKEVYLVDNFDPTTRPAHSEEGALDSSATELISS”: “soluble”. The same measure for “SLVNMNVPDMILYNGKITTLDPSQPEVSAIAITDGLITAVGGDELLNSATEKTKKIDLKRKRAIPGLNDSHIHVIRGGLHYNMELRWEGVPSITIALEMLKEQARRTPAPQWVRVVGGWSEFQFKERRMPTLEEINAVSEDTPVFVLHLYDRALVNRAGLRALGYTKDTPDPPGCLIERDKRGNPTGLLIANPNASILYSSLGKAPILNFDDQINSTRHFMRELNRLGITSAIDAGGGFQNYPDDYRVVEHLAEKEQLTLRIAYNLFTQNPNHEYEDFASWAKIVSPGQGNDKYKMNGAGEMLVFSAADFEKFQMPRPELATMMEADLKKVISLLVENRWPFRLHATYDESITRFLNVFEEVNKEIPFNGLRWWFDHAETISDRSMERVKALNGGIAIQDRMAFQGEYFVDLYGKEAAKRTPPIYRMLDLGIPVGAGSDATRVSSYNPWVALYWMVAGKTIGGLSIYDEKNKLDRKVALELYSKGSAWFSGDEGKKGTLAVGQFADIAVLSADYFTVPEEEIKDLESLLTIMGGQVVYGNDEFKNLSPELPPASPDWSPTGVYGYGGANLAHTILSHDSHDNKLHSCSNPLHQHTHTVIGKDGTKWGIGCTCFAF”: “soluble”; for “IINGEDCSPHSQPWQAALVMENELFCSGVLVHPQWVLSAAHCFQNSYTIGLGLHSLEADQEPGSQMVEASLSVRHPEYNRPLLANDLMLIKLDESVSESDTIRSISIASQCPTAGNSCLVSGWGLLANGRMPTVLQCVNVSVVSEEVCSKLYDPLYHPSMFCAGGGQDQKDSCNGDSGGPLICNGYLQGLVSFGKAPCGQVGVPGVYTNLCKFTEWIEKTVQA”: “soluble”; for “ASTSRLDALPRVTCPNHPDAILVEDYRAGDMICPECGLVVGDRVIDVGSEWRTFSNDK”: “soluble”. The same measure for “MGSDKIHHHHHHMRAVRLHAKWDPRPEFKLGPKDIEGKLTWLGSKVWRYPEVRVEEVPEPRIEKPTEIIIKVKACGICGSDVHMAQTDEEGYILYPGLTGFPVTLGHEFSGVVVEAGPEAINRRTNKRFEIGEPVCAEEMLWCGHCRPCAEGFPNHCENLNELGFNVDGAFAEYVKVDAKYAWSLRELEGVYEGDRLFLAGSLVEPTSVAYNAVIVRGGGIRPGDNVVILGGGPIGLAAVAILKHAGASKVILSEPSEVRRNLAKELGADHVIDPTKENFVEAVLDYTNGLGAKLFLEATGVPQLVWPQIEEVIWRARGINATVAIVARADAKIPLTGEVFQVRRAQIVGSQGHSGHGTFPRVISLMASGMDMTKIISKTVSMEEIPEYIKRLQTDKSLVKVTMLNE”: “not soluble”; for “MKPLLLSRRTHQKPGNYASGRGFPSSTRYIEDVQWLLKEFEPFVRVSADLPFVKARDIALIRSELEKKKPASLEVCLLEHHHHHH”: “not soluble”; for “MAHHHHHHMYQGRSQQPLWTPPPNFSQVETGIYRSAYPTLASVPFLHHIGIKTIVLLSIELLPVPVVRAISEGDVVAGTTSVSDDVHAWKDNECIKWPIRIVSTADLSEWMNEYVCAKDDFAVSSVQRALDFALQPDFQPVLFTCPTGELQTSVIVGCMRRHQGWSLAAVLAECELFVNVTGGVRQSVMNFIEQWDPDEHPVREEDIAKRKRELLLRDPSLSYSVKRHRRTVTHSASDPDSEYDDPLAMGTSRLGQKGTAGNSAGMGLSLSPYKSSGFDRSTLSSTRVGGDELGLSHSSHVVIKLASWYTAAMKRRAAAAEAIVAARAKVRAPSDPLPEPHERYFGVLNPPALDERSTFTKKSIVQDLD”: “not soluble”. As for “SKLLENSSFEAINSQLTVETGDAHIIGRIESYSCKMAGDDKHMFKQFCQEGQPHVLEALSPPQTSGLSPSRLSKSQGGEEEGPLSDKCSRKTLFYLIATLNESFRPDYDFSTARSHEFSREPSLSWVVNAVNCSLFSAVREDFKDLKPQLWNAVDEEICLAECDIYSYNPDLDSDPFGEDGSLWSFNYFFYNKRLKRIVFFSCRSISGSTYTPSEAGNELDMELGEEEVEEESRSRGSGAEETSTMEEDRVPVICI”, the “soluble on expression in E. coli” value was “soluble”. With “MVTINNARKILQRVDTLPLYLHAYAFHLNMRLERVLPADLLDIASENNLRGVKIHVLDGERFSLGNMDDKELSAFGDKARRLNLDIHIETSASDKASIDEAVAIALKTGASSVRFYPRYEGNLRDVLSIIANDIAYVRETYQDSGLTFTIEQHEDLKSHELVSLVKESEMESLSLLFDFANMINANEHPIDALKTMAPHITQVHIKDALIVKEPGGLGHKACISGQGDMPFKALLTHLICLGDDEPQVTAYGLEEEVDYYAPAFRFEDEDDNPWIPYRQMSETPLPENHLLDARLRKEKEDAINQINHVRNVLQQIKQEANHLLNH”, the “soluble on expression in E. coli” value is reported as “soluble”. The same measure for “MGKTQEFLRLRRIIALSSLLASRKSAMCLAVLALHAIPGLPVLIAANRDEFHARPTAEATRWPGSPAIYAGRDLQAGGTWLGVSDQGRYAVVTNFRDPRNIQPDAPSRGALVEAFLRGAASAQEYLRDVHARGARYNGFNLIVGDAGGAWYCSNRDGAPQRLAAGVYALSNHLLDTPWPKLARTKAAFERIIAATPQPDLAALYAALADPTPAADHELPATGLALERERLLSSPFIVSPDYGTRSACILALHDDGRGELHERRFRPDGAIAGQADLDFPWRAARAELHRASCVLEHHHHHH”: “not soluble”; for “MGSDKIHHHHHHMLSNRELLQKLLKGIETGDPAAAAVVNEEKYIQHYPQTHEGSEGLAVLFARLAKTNPRVRFVRVFEDGDFAFAHNEYDFASLRVAFEVFRFENGRAVEHWDNIQPMLGPNPSGRGMLDGVTQITDLERTEANRALVRDFAQRVLVGRQLDFLGSCVDDGLIQHDPEIADGRAAYRAALEAVTNGQPRLHYTRLHRVLAEGNFVLCMCEGERDGVHSSFYDLFRVENDTIIEHWNTIEAIAPRNEWKNENGKF”: “not soluble”. The same measure for “GPLGSAQTLQMEIPNFGNSILECLNEQRLQGLYCDVSVVVKGHAFKAHRAVLAASSSYFRDLFNNSRSAVVELPAAVQPQSFQQILSFCYTGRLSMNVGDQDLLMYTAGFLQIQEIMEKGTEFFLKVSS”: “soluble”; for “MEKVKKIVLIGASGFVGSALLNEALNRGFEVTAVVRHPEKIKIENEHLKVKKADVSSLDEVCEVCKGADAVISAFNPGWNNPDIYDETIKVYLTIIDGVKKAGVNRFLMVGGAGSLFIAPGLRLMDSGEVPENILPGVKALGEFYLNFLMKEKEIDWVFFSPAADMRPGVRTGRYRLGKDDMIVDIVGNSHISVEDYAAAMIDELEHPKHHQERFTIGYLEHHHHHH”: “soluble”.

“TAPSQVLKIRRPDDWHLHLRDGDMLKTVVPYTSEIYGRAIVMPNLAPPVTTVEAAVAYRQRILDAVPAGHDFTPLMTCYLTDSLDPNELERGFNEGVFTAAKLYPANAVTNSSHGVTSVDAIMPVLERMEKIGMPLLVHGEVTHADIDIFDREARFIESVMEPLRQRLTALKVVFEHITTKDAADYVRDGNERLAATITPQHLMFNRNHMLVGGVRPHLYCLPILKRNIHQQALRELVASGFNRVFLGTDSAPHARHRKESSCGCAGCFNAPTALGSYATVFEEMNALQHFEAFCSVNGPQFYGLPVNDTFIELVREEQQVAESIALTDDTLVPFLAGETVRWSVKQ”: the “soluble on expression in E. coli” value is “soluble”.
